# The RNAGym collection of RNA variant scans (doi:10.1021/acssynbio.7b00057)
# B1: Pistol ribozyme (parent)
# chain: GGGUCGUUGUUCCAUAAUCGCGUGGAUAUGGCACGCAAGUUUCUACCGGGCACCGUAAAUGUCCGACUGGAGCCGUUCGGGCGGCUAUAAACAGACCUCAGGCCCGAAGCGUGGCGGCACCUGCCGCCGGUGGUAAAAAAGAUCGGAAGAGCACACGUCU
# Variants of: B1
# Assay: aptazyme ON/OFF ratio, guanine; higher = stronger switching; co-transcriptional cleavage with and without guanine
row,Variant,aptazyme ON/OFF ratio
1,U10C U11A C12U C13U,1.19
2,U7G G9U U10A U11A C12A C13A,1.17
3,U8C G9C U11A C12G C13A,1.17
4,U7G U10C U11A C12U C13G,1.11
5,G9U U10C U11G C13U,1.52
6,U8G U10G U11G C12A C13G,1.05
7,U7G U8C G9C U10A C12G C13U,1.09
8,U8G G9C U10G U11G C12U C13G,1.14
9,U7A U8G G9U U10G U11A C12G C13G,1.38
10,U7A U8G G9A U11G C12U C13A,1.12
11,U7G U8C G9U U10G U11A C12G C13A,1.16
12,U7G U8C G9C U10C U11A C12G C13A,1.2
13,U8G G9A U10C U11G C13G,1.16
14,U7G U8G G9A U10A C12U C13A,1.22
15,U7G U8G G9C U11G C12G C13A,1.17
16,U8G G9A U10C U11C C12G C13U,1.05
17,U7G G9C U11A C12G C13U,1.36
18,U7C U8G G9C U10G U11C C12U,1.07
19,U7G G9A U10G U11A C12A C13U,1.09
20,U7A U8A U10C U11C C12U,1.07
21,U8C G9A U10C U11G C12A C13A,1.44

row,Variant,aptazyme ON/OFF ratio
1,U7A U11A C12G,1.2
2,U7C U8G G9A U10C U11G C12A C13G,1.13
3,U7G U11G C12U C13U,1.2
4,U7C G9C U10G U11C C13G,1.04
5,U7G G9C U11A C12A C13U,1.52
6,U7G G9A U10G U11A C13U,1.07
7,U7A U8G U10G U11G C13G,1.29
8,U7G U8C G9A U10G U11A C12A C13A,1.04
9,U7G U8G G9C U10A U11A C12A C13U,1.04
10,U7A G9A U10A U11A,1.34
11,U7G U8A G9C U10G U11G C12U C13A,1.07
12,U10C U11A C12U C13A,1.38
13,U7G U8G G9A U11A C12G,1.12
14,U7C U8G G9U U10A C12A C13U,1.22
15,U8C G9U U10C U11C C12U C13U,1.07
16,U7C U8C G9U U10A C12G C13A,1.16
17,U7A U8C G9U U11G C12G C13U,1.07
18,U7G G9A U11C,1.17
19,U7C U8G G9C U10G U11C C13U,1.07
20,U7C G9U U10C U11A C13A,1.1
21,U10C U11C C13U,1.03

row,Variant,aptazyme ON/OFF ratio
1,U7C U10A C12U,1.09
2,U7G U8C G9A U11C,1.4
3,U7C U8G G9U U10C U11A C12G,1.26
4,U7A U8A G9U U10A U11G C12A,1.07
5,U7C U8G G9C U10A U11A C12U C13U,1.24
6,U8C U11A C13U,1.11
7,U8G G9C U10G U11G C13A,1.16
8,U7A U8C U11C C12A,1.39
9,G9U U10G U11A C12U C13U,1.85
10,U7A U8G G9A U10A U11G C12U,1.14
11,U8C U10G U11G,1.26
12,U7G U8G G9C U10A C12G,1.03
13,U7G G9C U11C C12G C13A,1.35
14,U7G U8G G9C U10A U11G C12G C13A,1.1
15,U7C U8G G9C U10C U11G,1.16
16,U8G G9U U10C C13A,1.04
17,U8G G9A U10G C12A,1.44
18,U7C G9C U10C U11C C12A C13A,1.04
19,U7A U8A U10G C12G C13U,1.28
20,U7C U8A U10C C13U,3.34
21,U7G G9C U10G U11G C12A C13G,1.13

row,Variant,aptazyme ON/OFF ratio
1,U7C U8A G9A U11C C13A,1.04
2,U7A G9A U10A U11A C12U,1.21
3,U7G G9A U11G C13A,1.11
4,U8C G9A U10A U11A C12U,1.35
5,U7C U8C G9A U10C U11G C13U,1.32
6,U7C U8G G9A U10A U11C C13U,1.04
7,U7G U8A G9U U10C C12G C13G,1.29
8,U7C U8G C12G C13A,1.09
9,U7C U8C U10C C12U C13A,1.35
10,U7A U8C G9U U10G U11G C12U C13G,1.11
11,U7C U8G G9A U10G U11G C12A,1.33
12,U7G G9U U10A C12A,1.65
13,U7A U8A G9C U10A U11C C12A C13U,1.2
14,U7C U8C U10G U11A C13G,1.14
15,U8A G9U U10A C12U C13U,1.13
16,U7A U8G G9U U10C C12G C13G,1.16
17,U7A G9U U11C C12A C13A,1.24
18,U8G G9C U10C U11G C12U C13U,1.07
19,U7G U10G C12A C13A,1.09
20,U7C G9U U10A U11A C12U C13G,1.14
